Several values for one entry are separate records, joined by “and”; a condition that tells them apart may be missing. Equal values may be shown once.

Assay [1] has as its target fibrin (immobilised human plasma fibrinogen cross-linked on the chip with thrombin and coagulation factor XIII) (human) (UniProt P02671). Kind of assay: SPR; Biacore T200, 25°C, HBS-EP+; fibrinogen amine-coupled to CM5 (aim 12,000 RU) and cross-linked with thrombin and factor XIII; tenecteplase injected at 2, 3 and 4 μg/mL, 5 μL/min, 120 s contact and 120 s dissociation; sensorgram comparison against a corridor (average ± 3 SD, normalised) of three Metalyse lots gives a similarity score. (In general: Surface plasmon resonance follows binding to a sensor surface in real time, without labels.)

Assay [2] deals with recombinant low-density lipoprotein receptor-related protein 1 (LRP-1) Cluster IV. Kind of assay: SPR; Biacore T200, 25°C, HBS-EP+ with 8 mM CaCl2; LRP-1 (approx. 1300 RU), ASGR1 (approx. 1500 RU) and MRC1 (approx. 13,000 RU) amine-coupled to parallel flow cells of CM5; Metalyse (88, 53, 32 μg/mL) and Mingfule (53, 32, 19 μg/mL) injected at 30 μL/min for 240 s, 150 s dissociation; sensorgram comparison gives a similarity score.

For assay [3], the target named is asialoglycoprotein receptor 1 (ASGR1, P01) (UniProt P07306). Described as above.
Assay [4] addresses mannose receptor C, type 1 (MRC1) (UniProt P22897). The description is as above.
Chain of UniProt P22897 (P22897 19-1389): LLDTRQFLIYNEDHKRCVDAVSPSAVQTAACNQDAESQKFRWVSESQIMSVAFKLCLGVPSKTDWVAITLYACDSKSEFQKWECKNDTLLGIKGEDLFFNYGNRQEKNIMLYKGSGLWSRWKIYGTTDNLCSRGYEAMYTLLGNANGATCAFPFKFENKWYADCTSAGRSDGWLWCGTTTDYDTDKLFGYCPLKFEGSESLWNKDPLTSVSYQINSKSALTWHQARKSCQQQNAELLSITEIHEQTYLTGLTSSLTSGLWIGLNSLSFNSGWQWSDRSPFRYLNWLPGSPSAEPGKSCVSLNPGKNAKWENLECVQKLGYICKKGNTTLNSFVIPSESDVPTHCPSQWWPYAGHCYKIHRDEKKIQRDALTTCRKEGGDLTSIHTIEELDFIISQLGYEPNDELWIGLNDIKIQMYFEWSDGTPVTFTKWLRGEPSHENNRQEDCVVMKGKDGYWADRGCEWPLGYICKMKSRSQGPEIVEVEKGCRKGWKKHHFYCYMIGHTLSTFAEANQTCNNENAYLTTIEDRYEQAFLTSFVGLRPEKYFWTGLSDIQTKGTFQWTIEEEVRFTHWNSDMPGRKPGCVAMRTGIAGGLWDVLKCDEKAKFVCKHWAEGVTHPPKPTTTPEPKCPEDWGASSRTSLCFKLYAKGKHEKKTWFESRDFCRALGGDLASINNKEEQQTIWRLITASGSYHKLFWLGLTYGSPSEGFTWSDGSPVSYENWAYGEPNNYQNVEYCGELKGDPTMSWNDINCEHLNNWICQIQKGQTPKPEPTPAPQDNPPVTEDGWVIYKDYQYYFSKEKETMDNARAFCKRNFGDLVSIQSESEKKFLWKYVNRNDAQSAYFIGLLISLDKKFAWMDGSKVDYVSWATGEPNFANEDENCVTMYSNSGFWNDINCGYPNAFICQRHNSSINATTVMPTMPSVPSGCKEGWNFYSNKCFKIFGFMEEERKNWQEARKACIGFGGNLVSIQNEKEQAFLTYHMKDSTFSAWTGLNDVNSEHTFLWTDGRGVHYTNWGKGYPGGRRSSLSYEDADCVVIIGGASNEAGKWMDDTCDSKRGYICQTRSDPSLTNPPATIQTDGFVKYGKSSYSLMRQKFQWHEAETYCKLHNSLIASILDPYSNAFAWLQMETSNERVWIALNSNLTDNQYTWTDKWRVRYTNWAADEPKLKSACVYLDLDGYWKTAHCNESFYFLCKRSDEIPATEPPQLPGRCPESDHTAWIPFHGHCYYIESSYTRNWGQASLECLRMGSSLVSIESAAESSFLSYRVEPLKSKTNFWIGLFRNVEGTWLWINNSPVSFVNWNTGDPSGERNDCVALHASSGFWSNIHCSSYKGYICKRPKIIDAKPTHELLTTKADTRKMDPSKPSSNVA

Chain of UniProt P02671 (P02671 36-866, chain 1 of 3): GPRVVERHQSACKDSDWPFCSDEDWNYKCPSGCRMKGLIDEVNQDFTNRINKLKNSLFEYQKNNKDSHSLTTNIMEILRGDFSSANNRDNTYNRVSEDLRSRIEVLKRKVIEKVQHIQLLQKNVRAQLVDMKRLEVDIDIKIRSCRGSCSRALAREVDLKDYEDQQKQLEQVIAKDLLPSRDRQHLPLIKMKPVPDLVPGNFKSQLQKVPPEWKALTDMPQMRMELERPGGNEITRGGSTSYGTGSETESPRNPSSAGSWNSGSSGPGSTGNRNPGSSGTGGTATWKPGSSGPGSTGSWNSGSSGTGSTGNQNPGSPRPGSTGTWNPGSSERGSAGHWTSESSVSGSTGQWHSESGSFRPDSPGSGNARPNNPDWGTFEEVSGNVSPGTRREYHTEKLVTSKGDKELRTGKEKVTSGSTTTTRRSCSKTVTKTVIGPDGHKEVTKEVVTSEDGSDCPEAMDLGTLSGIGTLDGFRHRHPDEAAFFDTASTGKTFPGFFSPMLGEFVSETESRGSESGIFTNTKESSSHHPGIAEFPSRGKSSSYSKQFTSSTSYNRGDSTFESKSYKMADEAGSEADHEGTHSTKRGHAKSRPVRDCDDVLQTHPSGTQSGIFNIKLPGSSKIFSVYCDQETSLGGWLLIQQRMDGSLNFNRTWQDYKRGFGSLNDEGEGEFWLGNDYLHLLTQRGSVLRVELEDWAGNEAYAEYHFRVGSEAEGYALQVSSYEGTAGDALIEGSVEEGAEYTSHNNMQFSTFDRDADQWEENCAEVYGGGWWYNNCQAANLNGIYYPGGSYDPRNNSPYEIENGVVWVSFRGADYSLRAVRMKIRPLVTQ
Chain of UniProt P02671 (P02675 45-491, chain 2 of 3, further chain): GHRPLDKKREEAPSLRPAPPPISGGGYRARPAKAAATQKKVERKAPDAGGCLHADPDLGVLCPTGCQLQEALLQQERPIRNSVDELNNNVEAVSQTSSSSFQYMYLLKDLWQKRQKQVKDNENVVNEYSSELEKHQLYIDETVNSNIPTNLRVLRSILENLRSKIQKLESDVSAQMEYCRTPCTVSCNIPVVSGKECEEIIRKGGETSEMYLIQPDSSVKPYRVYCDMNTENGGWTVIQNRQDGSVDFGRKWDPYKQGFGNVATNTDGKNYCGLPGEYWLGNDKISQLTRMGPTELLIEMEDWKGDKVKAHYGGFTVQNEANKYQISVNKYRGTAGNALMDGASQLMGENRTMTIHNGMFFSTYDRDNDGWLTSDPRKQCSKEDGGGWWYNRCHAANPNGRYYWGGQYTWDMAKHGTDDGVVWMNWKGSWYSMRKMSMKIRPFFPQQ
Chain of UniProt P02671 (P02679 27-453, chain 3 of 3, further chain): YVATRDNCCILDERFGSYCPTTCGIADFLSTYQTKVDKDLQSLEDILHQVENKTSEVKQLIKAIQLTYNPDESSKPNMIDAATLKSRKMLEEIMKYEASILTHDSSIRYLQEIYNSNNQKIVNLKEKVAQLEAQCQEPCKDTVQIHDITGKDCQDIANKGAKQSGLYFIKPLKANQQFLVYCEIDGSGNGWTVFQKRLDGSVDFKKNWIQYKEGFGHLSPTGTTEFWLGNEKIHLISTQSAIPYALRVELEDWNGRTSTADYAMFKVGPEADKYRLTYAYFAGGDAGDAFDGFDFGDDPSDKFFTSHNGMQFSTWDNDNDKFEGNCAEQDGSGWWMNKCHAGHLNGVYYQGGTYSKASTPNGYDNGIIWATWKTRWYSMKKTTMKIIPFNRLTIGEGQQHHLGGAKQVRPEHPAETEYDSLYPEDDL

As for “tenecteplase copy Mingfule 16 mg/vial (CSPC Recomgen Pharmaceutical, Guangzhou, Co., Ltd.) (enzyme)”, the similarity score to Metalyse (SPR sensorgram comparison) is 53% and 37% and 46% in assay [1]; 30% and 17% and 25% in assay [2]; 5% and 6% and 9% in assay [3]; 8% and 9% and 10% in assay [4].

The values are drawn from paper PMC11695638.
